Assay results taken from article PMC4877808.

B1: haptoglobin (free-Hp) (ligand)
chain 1: VETGSEATADSCPKAPEIANSHVEYSVRYQCDKYYKLHAGNGVYTFNNKQWINKDIGQQLPECEEDDSCPEPPKIENGYVEYLVRYQCKPYYTLRTCGDGVYTFNSKKQWINKNIGQKLPECEAVCGKPKHPVDQVQ
chain 2: IIGGSLDAKGSFPWQAKMVSQHNLISGATLINERWLLTTAKNLYLGHSSDKKAKDITPTLRLYVGKNQLVEVEKVVLHPDHSKVDIGLIKLRQKVPVNDKVMPICLPSKDYVKVGRVGYVSGWGRNENFNFTEHLKYVMLPVADQDKCVKHYEGVDAPKNKTAKSPVGVQPILNENTFCVGLSKYQDDTCYGDAGSAFVVHDKEDDTWYAAGILSFDKSCAVAEYGVYVKVTSILDWVRKTIANN

Experiments:
[1] = target: His-tagged recombinant TbHpHbR (T. brucei haptoglobin-hemoglobin complex receptor, without the signal sequence) (Trypanosoma brucei brucei GUTat 3.1); assay: SPR; quantitative: Biacore X, His-tagged receptor immobilised on CM5 (rTcHpHbR 800 RU, rTbHpHbR 480 RU), 30 μl/min, free-Hb and free-Hp 0.0001-10 μM; Kd = dissociation rate constant / association rate constant
[2] = target: His-tagged recombinant TcHpHbR (T. congolense haptoglobin-hemoglobin complex receptor, without the signal sequence) (Trypanosoma congolense IL3000); assay: as above

Molecule | Kd [1] [nM] | Kd [2] [nM]
bovine hemoglobin (free-Hb), from bovine erythrocytes (from UniProt P01966 1-142; P02070 1-145) (ligand) | 5300 | 20.5
B1 | 1800 | 220
